From paper PMC3546728, “Bacterial Over-Expression and Purification of the 3′phosphoadenosine 5′phosphosulfate (PAPS) Reductase Domain of Human FAD Synthase: Functional Characterization and Homology Modeling” (International Journal of Molecular Sciences, 2012)

What was measured:
Test in all cases: purified protein
Assay type in all cases: biochemical, Homo sapiens
O=P(O)(O)OP(=O)(O)O = tested on: T1, O=P(O)(O)OP(=O)(O)O; settings: reverse reaction, 0.5 μM FAD, 5 mM MgCl2, 50 mM Tris/HCl pH 7.5, 37 °C
T1 construct: C-terminal PAPS reductase domain, residues 329-587; vector pH6EX3; E. coli Rosetta (DE3); theoretical 31499 Da, ~28 kDa on SDS-PAGE

[1] = tested on: T2, Nc1ncnc2c1ncn2[C@@H]1O[C@H](COP(=O)(O)OP(=O)(O)OP(=O)(O)O)[C@@H](O)[C@H]1O; settings: 2 μM FMN, 5 mM MgCl2, 50 mM Tris/HCl pH 7.5, 37 °C
T2 construct: C-terminal PAPS reductase domain, residues 329-587; vector pH6EX3; E. coli Rosetta (DE3); theoretical 31499 Da, ~28 kDa on SDS-PAGE

[2] = tested on: T3, Cc1cc2nc3c(=O)[nH]c(=O)nc-3n(C[C@H](O)[C@H](O)[C@H](O)COP(=O)(O)O)c2cc1C; settings: 100 μM ATP, 5 mM MgCl2, 50 mM Tris/HCl pH 7.5, 37 °C
T3 construct: C-terminal PAPS reductase domain, residues 329-587; vector pH6EX3; E. coli Rosetta (DE3); theoretical 31499 Da, ~28 kDa on SDS-PAGE

Chain of 6-His-Δ1-328-hFADS (Homo sapiens) (chain, as listed by the source mutant): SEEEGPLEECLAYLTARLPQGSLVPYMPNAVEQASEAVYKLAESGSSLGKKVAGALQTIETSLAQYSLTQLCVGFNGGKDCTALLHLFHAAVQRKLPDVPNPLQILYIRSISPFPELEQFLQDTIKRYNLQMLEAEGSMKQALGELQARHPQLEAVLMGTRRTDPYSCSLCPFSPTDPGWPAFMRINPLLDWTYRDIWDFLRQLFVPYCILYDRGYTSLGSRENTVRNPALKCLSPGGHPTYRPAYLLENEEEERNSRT

## 6-His-Δ1-328-hFADS (Homo sapiens)
O=P(O)(O)OP(=O)(O)O
  Km: 92.0 ± 0.5 µM
  kcat: 0.0037 ± 0.0009 s⁻¹
[1]
  Km: 6.23 ± 1.5 µM
  kcat: 0.042 ± 0.001 s⁻¹
[2]
  Km: 0.24 ± 0.06 µM
  kcat: 0.042 ± 0.001 s⁻¹
